Paper PMC11272584 (Nature Metabolism, 2024)
Substitutions are numbered along the chain they refer to. In names and notes the source's numbering stands.

B1: R300W (protein)
chain: RAETGSKGQTAGELYQRWERYRRECQETLAAAEPPSGLACNGSFDMYVCWDYAAPNATARASCPWYLPWHHHVAAGFVLRQCGSDGQWGLWRDHTQCENPEKNEAFLDQRLILERLQVMYTVGYSLSLATLLLALLILSLFRRLHCTRNYIHINLFTSFMLRAAAILSRDRLLPRPGPYLGDQALALWNQALAACRTAQIVTQYCVGANYTWLLVEGVYLHSLLVLVGGSEEGHFRYYLLLGWGAPALFVIPWVIVRYLYENTQCWERNEVKAIWWIIWTPILMTILINFLIFIRILGILLSKLRTRQMRCRDYRLRLARSTLTLVPLLGVHEVVFAPVTEEQARGALRFAKLGFEIFLSSFQGFLVSVLYCFINKEVQSEIRRGWHHCRLRRSLGEEQRQLPERAFRALPSGSGPGEVPTSRGLSSGTLPGPGNEASRELESYC
B2: E354Q (protein)
chain: B1 chain with W279R, E333Q
B3: I378M (protein)
chain: B1 chain with W279R, I357M
B4: S382T (protein)
chain: B1 chain with W279R, S361T
B5: S382Y (protein)
chain: B1 chain with W279R, S361Y
B6: L304R (protein)
chain: B1 chain with W279R, L283R
B7: R336P (protein)
chain: B1 chain with W279R, R315P

The molecules below were run against T1, GIPR R300W (Homo sapiens, UniProt P48546, R300W) (assay: cAMP accumulation). Settings: not given.
T1 construct: host or cells: HEK293
T1 sequence (P48546 22-466 R300W): B1 chain
Type: cell-based
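Wherever Beta, Barr is given: BRET readout of β-arrestin 2 recruitment in transiently transfected HEK293 cells expressing WT GIPR or a GIPR variant plus GPCR kinase 2, Rluc8 donor and citrine acceptor.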
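Wherever In vitro groups (β-arrestin) is given: BRET readout of β-arrestin 2 recruitment in transiently transfected HEK293 cells expressing WT GIPR or a GIPR variant plus GPCR kinase 2, Rluc8 donor and citrine acceptor.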

Molecule	Efficacy at 100pmol (cAMP)
B1	0.0005276

Each molecule was assayed against T2, GIPR E354Q (Homo sapiens, UniProt P48546, E354Q) (assay: cAMP accumulation). Settings: not given.
T2 construct: host or cells: HEK293
T2 sequence (P48546 22-466 E354Q): B1 chain with W279R, E333Q
Type: cell-based

Molecule	Efficacy at 100pmol (cAMP)
B2	1.125

These molecules were tested on GIPR variants (groups) (assay: β-arrestin 2 recruitment (BRET)). Settings: arr part of the in vitro group.

Molecule	In vitro groups (β-arrestin)
B1	LoF_arr
B2	WT-like_arr
B3	GoF_arr
B4	LoF_arr
B5	LoF_arr
B6	LoF_arr
B7	LoF_arr

Same assay, conditions: in vitro β-arrestin recruitment per GIPR variant

Molecule	Beta, Barr
B1	0
B2	0.9822
B3	1.357
B4	0.05782
B5	0
B6	0.1329
B7	0.2102

These molecules were tested against T3, GIPR S382Y (Homo sapiens, UniProt P48546, S382Y) (assay: cAMP accumulation). Settings: not given.
T3 construct: host or cells: HEK293
T3 sequence (P48546 22-466 S382Y): B1 chain with W279R, S361Y
Type: cell-based

Molecule	Efficacy at 100pmol (cAMP)
B5	0.008271

Each molecule was assayed against T4, GIPR S382T (Homo sapiens, UniProt P48546, S382T) (assay: cAMP accumulation). Settings: not given.
T4 construct: host or cells: HEK293
T4 sequence (P48546 22-466 S382T): B1 chain with W279R, S361T
Type: cell-based

Molecule	Efficacy at 100pmol (cAMP)
B4	0.1068

These molecules were tested on GIPR variants (groups) (assay: cAMP accumulation). Settings: cAMP part of the in vitro group.
Type: cell-based, human

Molecule	In vitro groups (cAMP)
B1	LoF_camp
B2	WT-like_camp
B3	WT-like_camp
B4	LoF_camp
B5	LoF_camp
B6	LoF_camp
B7	LoF_camp

Same assay, conditions: cAMP production compared with WT

Molecule	percentage_camp
B1	<50% cAMP
B2	>50% cAMP
B3	>50% cAMP
B4	<50% cAMP
B5	<50% cAMP
B6	<50% cAMP
B7	<50% cAMP

Same assay, conditions: in vitro cAMP production per GIPR variant

Molecule	Beta, cAMP
B1	0
B2	1.125
B3	0.8167
B4	0.1068
B5	0.008271
B6	0.2373
B7	0.3193

What follows are molecules tested against T5, GIPR R336P (Homo sapiens, UniProt P48546, R336P) (assay: cAMP accumulation). Settings: not given.
T5 construct: host or cells: HEK293
T5 sequence (P48546 22-466 R336P): B1 chain with W279R, R315P
Type: cell-based

Molecule	Efficacy at 100pmol (cAMP)
B7	0.3193

The molecules below were run against T6, GIPR L304R (Homo sapiens, UniProt P48546, L304R) (assay: cAMP accumulation). Settings: not given.
T6 construct: host or cells: HEK293
T6 sequence (P48546 22-466 L304R): B1 chain with W279R, L283R
Type: cell-based

Molecule	Efficacy at 100pmol (cAMP)
B6	0.2373

What follows are molecules tested against T7, GIPR I378M (Homo sapiens, UniProt P48546, I378M) (assay: cAMP accumulation). Settings: not given.
T7 construct: host or cells: HEK293
T7 sequence (P48546 22-466 I378M): B1 chain with W279R, I357M
Type: cell-based

Molecule	Efficacy at 100pmol (cAMP)
B3	0.8167
